{"source": "paper PMC2720631", "molecular_target": "TRIP8b (mouse (endogenous in forebrain cortex)) (UniProt Q8C437)", "sequence (Q8C437 whole entry)": "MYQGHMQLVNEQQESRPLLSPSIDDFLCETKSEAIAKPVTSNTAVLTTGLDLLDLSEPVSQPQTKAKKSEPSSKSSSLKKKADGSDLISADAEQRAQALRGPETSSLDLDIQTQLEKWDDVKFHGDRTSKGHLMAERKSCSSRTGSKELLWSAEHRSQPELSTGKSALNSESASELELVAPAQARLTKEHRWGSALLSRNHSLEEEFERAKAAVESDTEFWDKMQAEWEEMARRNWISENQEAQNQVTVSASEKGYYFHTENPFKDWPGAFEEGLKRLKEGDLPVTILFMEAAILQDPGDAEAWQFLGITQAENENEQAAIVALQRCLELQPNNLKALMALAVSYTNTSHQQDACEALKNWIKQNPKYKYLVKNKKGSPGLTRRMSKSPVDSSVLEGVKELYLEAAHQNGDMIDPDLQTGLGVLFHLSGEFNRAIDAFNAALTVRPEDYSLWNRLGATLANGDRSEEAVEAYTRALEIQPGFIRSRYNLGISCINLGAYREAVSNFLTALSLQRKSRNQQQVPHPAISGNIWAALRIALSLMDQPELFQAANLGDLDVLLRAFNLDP", "test": "co-IP"}
{"substance": "HCN1 (from UniProt O88704 1-910) (natural protein)", "values": [{"measurement": "percent of HCN1 co-immunoprecipitated", "value": "< 50", "unit": "%"}]}
